Results on one substance are retold here after paper PMC5650612, “Enhancing Tropane Alkaloid Production Based on the Functional Identification of Tropine-Forming Reductase in Scopolia lurida, a Tibetan Medicinal Plant” (Frontiers in Plant Science, 2017).

In this data set the test system is CN1[C@@H]2CC[C@H]1CC(=O)C2. The experiment in a line: purified protein. The note with it: pH 6.4.

In the case of SlTRI (Anisodus luridus), the Michaelis constant (Km) is 40.90 ± 7.059 mM, the maximal velocity (Vmax) amounted to 1.95 µmol/min/mg and the kcat/Km was determined as 24 M⁻¹ s⁻¹.

The term Km denotes the concentration of substrate that gives half-maximal velocity. As usually defined, the Vmax is the top rate of the reaction or transport when substrate is in excess. As a reminder, the kcat/Km is the second-order rate constant that governs catalysis at low substrate concentration.
